Columns and labels:
Format in all cases: physicochemical
[1] = Solution phase stability of free base and hydrochloride salt (monomer vs dimer by HPLC), Example 15; conditions: for % dimer / % monomer: solution in distilled water, 25±1° C.
Experimental: A 1.657 mM solution of Ac—PHSCN—NH2 in distilled water and a 1.653 mM solution of the hydrochloride salt of Ac—PHSCN—NH2 in distilled water were placed in a water bath at 25±1° C. Aliquots (800 μL) were periodically removed and the amount of dimerization was determined by HPLC.
(§1) All HPLC spectra were taken on a Waters HPLC that included Breeze software, a Waters 2487 Dual λ Absorbance Detector, a Waters 1525 Binary HPLC Pump, and a Waters 717 plus Autosampler. The column was a Phenomenex Synergi 4μ Hydro-RP 80A, 250×4.60 mm 4μ micron. The 40 minute gradient that was used is described in the table below.
Mobile Phase A: 0.1% TFA in acetonitrile Mobile Phase B: 0.1% TFA in water
(§2) The HPLC peak for Ac-Pro-His-Ser-Cys-Asn-NH2 monomer at approximately 9.2 minutes, and the peak for ATN-161 dimer at approximately 10.0 minutes were integrated in order to determine the percentage of these two species in each sample.

[2] = Solution phase stability of free base, methanesulfonic acid salt and nitric acid salt (HPLC), Example 17; conditions: solution in distilled water, 25±0.5° C.
Experimental: as §1
A t=0 h timepoint was taken for each solution. The volumetric flasks were placed in a water bath at 25±0.5° C. and, periodically, a 0.7 mL aliquot was removed and the solution analyzed by HPLC as described in Example 15.

[3] = Solid phase stability of free base and hydrochloride salt (monomer vs dimer by HPLC), Example 16; conditions: for % dimer / % monomer: solid stored at 25±1° C.
Experimental: as §1, §2
Samples of 0.8-1.2 mg of Ac—PHSCN—NH2 and Ac—PHSCN—NH2 hydrochloride salt were weighed into HPLC sample vials and stored at 25±1° C. A 0 h time point was taken. Samples were periodically removed and diluted with distilled water to give a 1 mg/mL solution. The amount of dimerization was determined by HPLC as described in Example 15. The results are illustrated graphically in FIG. 3.

[4] = Solid phase stability of free base, methanesulfonic acid salt and nitric acid salt (HPLC), Example 18; conditions: solid stored at 25±0.5° C.
Experimental: as §1

Ac-Pro-His-Ser-Cys-Asn-NH2 (Ac-PHSCN-NH2) [Free Base]
conversion to other products (e.g., the dimer) ([1]; in solution after more than 500 hours at room temperature): completely converted to other products | % dimer ([1]; 0 h): 6.7% | % monomer ([1]; 0 h): 93.3% | % dimer ([1]; 69 h): 17.4% | % monomer ([1]; 69 h): 82.6% | % dimer ([1]; 140 h): 23.5% | % monomer ([1]; 140 h): 76.5% | % dimer ([1]; 188 h): 28.1% | % monomer ([1]; 188 h): 71.9% | % dimer ([1]; 236 h): 34.3% | % monomer ([1]; 236 h): 65.7% | % dimer ([1]; 309 h): 38.9% | % monomer ([1]; 309 h): 61.1% | % dimer ([1]; 357 h): 43.3% | % monomer ([1]; 357 h): 56.7% | % dimer ([1]; 404 h): 51.4% | % monomer ([1]; 404 h): 48.6% | % dimer ([1]; 477 h): 68.7% | % monomer ([1]; 477 h): 31.3% | % dimer ([1]; 525 h): 83.2% | % monomer ([1]; 525 h): 16.8% | % dimer ([1]; 622 h): 100% | % monomer ([1]; 622 h): 0% | % dimer ([2]; 0 h): 7.8% | % monomer ([2]; 0 h): 92.2% | % dimer ([2]; 69 h): 26.1% | % monomer ([2]; 69 h): 73.9% | % dimer ([2]; 140 h): 30.7% | % monomer ([2]; 140 h): 69.3% | % dimer ([2]; 213 h): 35.0% | % monomer ([2]; 213 h): 65.0% | % dimer ([2]; 332 h): 42.5% | % monomer ([2]; 332 h): 57.5% | % dimer ([2]; 408 h): 46.4% | % monomer ([2]; 408 h): 53.6% | % dimer ([2]; 479 h): 51.0% | % monomer ([2]; 479 h): 49.0% | % dimer ([2]; 549 h): 56.2% | % monomer ([2]; 549 h): 43.8% | % dimer ([2]; 645 h): 68.9% | % monomer ([2]; 645 h): 31.1% | % dimer ([2]; 720 h): 82.2% | % monomer ([2]; 720 h): 17.8% | % dimer ([2]; 836 h): 98.5% | % monomer ([2]; 836 h): 1.5% | % pure in the solid phase ([3]; solid phase, after more than 800 hours at room temperature, i.e., 23-25° C.): greater than 82% | % dimer ([3]; 0 h): 8.5% | % monomer ([3]; 0 h): 91.5% | % dimer ([3]; 73 h): 10.0% | % monomer ([3]; 73 h): 90.0% | % dimer ([3]; 143 h): 11.5% | % monomer ([3]; 143 h): 88.5% | % dimer ([3]; 243 h): 12.7% | % monomer ([3]; 243 h): 87.3% | % dimer ([3]; 312 h): 14.0% | % monomer ([3]; 312 h): 86.0% | % dimer ([3]; 410 h): 13.8% | % monomer ([3]; 410 h): 86.2% | % dimer ([3]; 576 h): 15.2% | % monomer ([3]; 576 h): 84.8% | % dimer ([3]; 677 h): 16.1% | % monomer ([3]; 677 h): 83.9% | % dimer ([3]; 818 h): 17.9% | % monomer ([3]; 818 h): 82.1% | % dimer ([4]; 0 h): 6.1% | % monomer ([4]; 0 h): 93.9% | % dimer ([4]; 161 h): 11.6% | % monomer ([4]; 161 h): 88.4% | % dimer ([4]; 335 h): 12.5% | % monomer ([4]; 335 h): 87.5% | % dimer ([4]; 498 h): 14.6% | % monomer ([4]; 498 h): 85.4% | % dimer ([4]; 670 h): 14.8% | % monomer ([4]; 670 h): 85.2% | % dimer ([4]; 832 h): 15.7% | % monomer ([4]; 832 h): 84.3% | % dimer ([4]; 1003 h): 17.0% | % monomer ([4]; 1003 h): 83.0% | % dimer ([4]; 1170 h): 16.5% | % monomer ([4]; 1170 h): 83.5% | % dimer ([4]; 1363 h): 17.6% | % monomer ([4]; 1363 h): 82.4% | % dimer ([4]; 1506 h): 18.6% | % monomer ([4]; 1506 h): 81.4% | % dimer ([4]; 1698 h): 19.2% | % monomer ([4]; 1698 h): 80.8%
